{"source": "patent US20070031849A1", "about": "“Three-dimensional structure of DNA recombination/repair protein and use thereof” (priority 2001, published 2007)"}
{"target": "T1, HsRad52(1-212) wild type (Homo sapiens, UniProt P43351 SEQ:1-212)", "T1 sequence": "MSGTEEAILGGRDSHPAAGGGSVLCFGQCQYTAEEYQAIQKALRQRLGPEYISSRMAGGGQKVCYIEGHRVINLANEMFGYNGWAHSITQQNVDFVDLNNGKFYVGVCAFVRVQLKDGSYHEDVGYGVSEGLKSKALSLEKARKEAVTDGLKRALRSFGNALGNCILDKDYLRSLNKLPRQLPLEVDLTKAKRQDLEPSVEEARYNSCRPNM", "experiment": "EMSA; 50 mM Hepes-KOH pH 7.5, 40 mM KCl, 1 mM MgCl2, 37 C, glutaraldehyde fixed; 0.25-2 uM protein; complex formation inhibited by Compound A", "details": "tags: His6 removed by thrombin; chain copies: 11 (undecameric ring, stated); label: 5'-32P", "method": "For gel shift assay, a reaction mixtures containing final concentratins of 50 mM Hepes-KOH (pH 7.5), 40 mM KCl, 1 mM MgCl₂, 0.1 mg/ml BSA, 1 mM DTT, 2% glycerol and 0.25 to 2 μM mutants of HsRad52₁₋₂₁₂ was used. For single-stranded DNA binding assay, 1 μl of 1 μM ³²P-labeled SAT-1 single-stranded DNA (nucleotide) was mixed with 9 μl of the reaction mixture, which was incubated at 37° C. for 5 minutes. Subsequently, 1 μl of 12% glyceraldehyde solution was added, to immobilize HsRad52 and the single-stranded DNA. After incubating for 20 minutes, a 6-fold volume of staining solution for electrophoresis was added. The reaction mixture was resolved by 1% agarose gel electrophoresis in 0.5×TBE buffer at 3.3 V/cm and ambient temperature. After electrophoresis, the gel was dried for detection by autoradiography. The amount of the free single-stranded DNA was assayed by an image analyzer BAS2500 manufactured by Fuji Film.\nSubsequently, the mixture was fixed with 0.2% glutaraldehyde for 20 minutes and electrophoresed on 1% agarose gel."}
{"molecule": "ATTTCATGCTAGACAGAAGAATTCTCAGTAACTTCTTTGTGCTGTGTGTA (ssDNA)", "note": "[SAT-1 50-mer]", "binding result": "binds"}
{"test_system": "SAT-1 single-stranded DNA", "experiment": "Gel shift assay: single-stranded DNA binding of HsRad521-212 point mutants", "details": "0.25 to 2 μM mutant; compared with wild type HsRad521-212", "description": "The single-stranded and double-stranded DNAs binding activities of the six types of point mutants thus prepared from HsRad521-212 were detected by gel shift assay method. The substrate DNA used by the method was prepared as described below. The pGsat4 of double-stranded DNA was prepared by inserting a 198-bp DNA fragment from human α-satellite into a plasmid PGEM-T East vector (manufactured by Promega). The 3.2-kb plasmid DNA was prepared by a gentle lysis method using sarcosyl, without alkali modification of the host E. coli, so as to avoid the irreversible denaturation. As the single-stranded DNA, a 50-base oligonucleotide purified by HPLC as shown in SEQ ID NO:2 was purchased from Roche Biochemical.\nThe 5′ terminus of the oligonucleotide was labeled with radioactivity in the presence of [γ^32P] ATP using T4 polynucleotide kinase (New England Biolabs) and then purified on a column Chromaspin-10 (manufactured by Clontech).\nFor gel shift assay, a reaction mixtures containing final concentratins of 50 mM Hepes-KOH (pH 7.5), 40 mM KCl, 1 mM MgCl2, 0.1 mg/ml BSA, 1 mM DTT, 2% glycerol and 0.25 to 2 μM mutants of HsRad521-212 was used. For single-stranded DNA binding assay, 1 μl of 1 μM ^32P-labeled SAT-1 single-stranded DNA (nucleotide) was mixed with 9 μl of the reaction mixture, which was incubated at 37° C. for 5 minutes. Subsequently, 1 μl of 12% […] solution was added, to immobilize HsRad52 and the single-stranded DNA. After incubating for 20 minutes, a 6-fold volume of staining solution for electrophoresis was added. The reaction mixture was resolved by 1% agarose gel electrophoresis in 0.5×TBE buffer at 3.3 V/cm and ambient temperature. After electrophoresis, the gel was dried for detection by autoradiography. The amount of the free single-stranded DNA was assayed by an image analyzer BAS2500 manufactured by Fuji Film. […] Compared with the wild type HsRad521-212, the single-stranded DNA binding activity of all of the point mutants was lowered."}
{"molecule": "R55A: point mutant of HsRad521-212, arginine at position 55 substituted with alanine (protein) MSGTEEAILGGRDSHPAAGGGSVLCFGQCQYTAEEYQAIQKALRQRLGPEYISSAMAGGGQKVCYIEGHRVINLANEMFGYNGWAHSITQQNVDFVDLNNGKFYVGVCAFVRVQLKDGSYHEDVGYGVSEGLKSKALSLEKARKEAVTDGLKRALRSFGNALGNCILDKDYLRSLNKLPRQLPLEVDLTKAKRQDLEPSVEEARYNSCRPNMALGHPQLQQVTSPSRPSHAVIPADQDCSSRSLSSSAVESEATHQRKLRQKQLQQQFRERMEKQQVRVSTPSAEKSEAAPPAPPVTHSTPVTVSEPLLEKDFLAGVTQELIKTLEDNSEKWAVTPDAGDGVVKPSSRADPAQTSDTLALNNQMVTQNRTPHSVCHQKPQAKSGSWDLQTYSADQRTTGNWESHRKSQDMKKRKYDPS", "Single-stranded DNA binding activity": "lost most of the binding activity to the single-stranded DNA"}
{"molecule": "R70A: point mutant of HsRad521-212, arginine at position 70 substituted with alanine (protein) MSGTEEAILGGRDSHPAAGGGSVLCFGQCQYTAEEYQAIQKALRQRLGPEYISSRMAGGGQKVCYIEGHAVINLANEMFGYNGWAHSITQQNVDFVDLNNGKFYVGVCAFVRVQLKDGSYHEDVGYGVSEGLKSKALSLEKARKEAVTDGLKRALRSFGNALGNCILDKDYLRSLNKLPRQLPLEVDLTKAKRQDLEPSVEEARYNSCRPNMALGHPQLQQVTSPSRPSHAVIPADQDCSSRSLSSSAVESEATHQRKLRQKQLQQQFRERMEKQQVRVSTPSAEKSEAAPPAPPVTHSTPVTVSEPLLEKDFLAGVTQELIKTLEDNSEKWAVTPDAGDGVVKPSSRADPAQTSDTLALNNQMVTQNRTPHSVCHQKPQAKSGSWDLQTYSADQRTTGNWESHRKSQDMKKRKYDPS", "Single-stranded DNA binding activity": "lost most of the binding activity to the single-stranded DNA"}
{"molecule": "Y65A: point mutant of HsRad521-212, tyrosine at position 65 substituted with alanine (protein) MSGTEEAILGGRDSHPAAGGGSVLCFGQCQYTAEEYQAIQKALRQRLGPEYISSRMAGGGQKVCAIEGHRVINLANEMFGYNGWAHSITQQNVDFVDLNNGKFYVGVCAFVRVQLKDGSYHEDVGYGVSEGLKSKALSLEKARKEAVTDGLKRALRSFGNALGNCILDKDYLRSLNKLPRQLPLEVDLTKAKRQDLEPSVEEARYNSCRPNMALGHPQLQQVTSPSRPSHAVIPADQDCSSRSLSSSAVESEATHQRKLRQKQLQQQFRERMEKQQVRVSTPSAEKSEAAPPAPPVTHSTPVTVSEPLLEKDFLAGVTQELIKTLEDNSEKWAVTPDAGDGVVKPSSRADPAQTSDTLALNNQMVTQNRTPHSVCHQKPQAKSGSWDLQTYSADQRTTGNWESHRKSQDMKKRKYDPS", "Single-stranded DNA binding activity": "lost most of the binding activity to the single-stranded DNA"}
{"molecule": "H69A: point mutant of HsRad521-212, histidine at position 69 substituted with alanine (protein) MSGTEEAILGGRDSHPAAGGGSVLCFGQCQYTAEEYQAIQKALRQRLGPEYISSRMAGGGQKVCYIEGARVINLANEMFGYNGWAHSITQQNVDFVDLNNGKFYVGVCAFVRVQLKDGSYHEDVGYGVSEGLKSKALSLEKARKEAVTDGLKRALRSFGNALGNCILDKDYLRSLNKLPRQLPLEVDLTKAKRQDLEPSVEEARYNSCRPNMALGHPQLQQVTSPSRPSHAVIPADQDCSSRSLSSSAVESEATHQRKLRQKQLQQQFRERMEKQQVRVSTPSAEKSEAAPPAPPVTHSTPVTVSEPLLEKDFLAGVTQELIKTLEDNSEKWAVTPDAGDGVVKPSSRADPAQTSDTLALNNQMVTQNRTPHSVCHQKPQAKSGSWDLQTYSADQRTTGNWESHRKSQDMKKRKYDPS", "Single-stranded DNA binding activity": "lost most of the binding activity to the single-stranded DNA"}
{"target": "T2, HsRad52 protein (HsRad521-212) (Homo sapiens, UniProt P43351)", "T2 construct": "hexahistidine (N, cleaved yes); made in house; host or cells: E. coli JM109 (DE3), pET15-b", "T2 sequence (P43351 1-212)": "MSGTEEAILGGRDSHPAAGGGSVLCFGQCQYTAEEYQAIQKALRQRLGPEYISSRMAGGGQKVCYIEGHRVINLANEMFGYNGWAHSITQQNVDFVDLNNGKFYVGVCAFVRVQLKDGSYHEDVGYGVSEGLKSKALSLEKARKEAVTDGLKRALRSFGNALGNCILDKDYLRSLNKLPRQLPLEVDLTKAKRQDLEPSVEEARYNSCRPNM", "experiment": "Screening for HsRad52-binding compounds by one-dimensional 1H-NMR", "details": "calculated from signal intensity of the NMR spectrum; binding force of Compound A defined as 1", "description": "Among the ligand candidate compounds obtained in Example 8, one candidate compound was in view of the binding free energy change (ΔG) obtained by AutoDock and solubility. The compound was dissolved in DMSO-d6 to be adjusted to 455.7 μM. The HsRad521-212 protein prepared in Example 3 was dissolved to 152 μM using buffer solution A (dissolved in heavy water to 10 mM Tris-dll, pH 7.5)/200 mM KCl). Using them, two types of samples namely the ligand candidate compound alone and the ligand candidate compound to which the HsRad52 protein was added at 1:1 were prepared.\nThe final concentration of the ligand candidate compound is 21.7 μM.\nThe final concentrations of the ligand candidate compound and the HsRad52 protein are 21.7 μM, respectively.\nOne-dimensional ^1H-NMR of the individual samples was measured, to observe whether or not any change existed between prior to and after the addition of HsRad52 protein. Consequently, the NMR spectrum of a sample of ID AK968-41170131 with a chemical name of cis-6-[4-(4-isobutyl-phenyl)-5-methyl-thiazol-2-ylcarbamoyl]-3,4-dimethyl-cyclohex-3-enec arboxylic acid (Compound A, −11.71 kcal/mol) as such ligand candidate compound is shown in FIGS. 5 through 7. […] In FIG. 6, a slight increase of the base line due to the mixing with the protein can be observed, but apparently, Compound A-derived two signals around 7.5 ppm disappeared.\nHerein, all the NMR spectra were taken in deuterium, using Bruker DRX500 NMR spectrophotometer at 298 K.\nUsing such method, the plural ligand candidate compounds obtained in Example 8 were adjusted to various concentrations to measure the NMR spectra. Compounds detected with the interaction with HsRad52 are shown below in Table 4. Herein, the strength of a binding force relatively calculated from the signal intensity of the NMR spectrum is shown as relative binding force, provided that the binding force of the Compound A is defined as 1."}
{"molecule": "CC1=C(C)CC(C(=O)Nc2nc(-c3ccc(C)cc3C)c(C)s2)C(C(=O)O)C1", "note": "(stereo not drawn) [D, 6-[4-(2,4-Dimethyl-phenyl)-5-methyl-thiazol-2-ylcarbamoyl]-3,4-dimethyl-cyclohex-3-enecarboxylic acid]", "Relative Binding force": 0.2}
{"molecule": "CCCCc1ccc(-c2nc(NC(=O)C3C4CCC(O4)C3C(=O)O)sc2C)cc1", "note": "(stereo not drawn) [C, 3-[4-(4-Butyl-phenyl)-5-methyl-thiazol-2-ylcarbamoyl]-7-oxa-bicyclo[2.2.1]heptane-2-carboxylic acid]", "Relative Binding force": 0.5}
{"molecule": "CC1=C(C)CC(C(=O)Nc2nc(-c3ccc(C(C)C)cc3)c(C)s2)C(C(=O)O)C1", "note": "(stereo not drawn) [Compound B, 6-[4-(4-Isopropyl-phenyl)-5-methyl-thiazol-2-ylcarbamoyl]-3,4-dimethyl-cyclohex-3-enecarboxylic acid]", "Relative Binding force": 0.5}
{"molecule": "CCCc1ccc(-c2nc(NC(=O)C3CC(C)=C(C)CC3C(=O)O)sc2C)cc1", "note": "(stereo not drawn) [E, 3,4-Dimethyl-6-[5-methyl-4-(4-propyl-phenyl)-thiazol-2-ylcarbamoyl]-cyclohex-3-enecarboxylic acid]", "Relative Binding force": 0.5}
